One block for each sequence: values may come before it.
Columns and labels:
[1] = target: HLA-B*07:02; experiment: IEDB peptide-MHC binding, purified MHC/competitive/radioactivity; filed as Kd, often an IC50 or EC50 that approximates it; ≥ and ≤ were set here for values at or beyond the usual limits of such assays
[2] = target: HLA-A*24:02; experiment: IEDB peptide-MHC binding, purified MHC/competitive/fluorescence; ≥ and ≤ were set here for values at or beyond the usual limits of such assays
[3] = target: HLA-B*35:01; experiment: IEDB peptide-MHC binding, purified MHC/competitive/radioactivity; filed as Kd, often an IC50 or EC50 that approximates it; ≥ and ≤ were set here for values at or beyond the usual limits of such assays
[4] = target: HLA-B*53:01; experiment: as above
[5] = target: HLA-A*26:01; experiment: as above; details: source organism: Dengue virus 3 Martinique/1243/1999
[6] = target: HLA-B*51:01; experiment: as above
[7] = target: HLA-B*08:01; experiment: as above; details: source organism: Dengue virus 2 Jamaica/1409/1983
[8] = target: HLA-A*02:01; experiment: IEDB peptide-MHC binding, purified MHC/competitive/fluorescence; ≥ and ≤ were set here for values at or beyond the usual limits of such assays
[9] = target: HLA-B*57:01; experiment: IEDB peptide-MHC binding, purified MHC/direct/fluorescence; filed as Kd, often an IC50 or EC50 that approximates it; ≥ and ≤ were set here for values at or beyond the usual limits of such assays; details: source organism: Giardia lamblia ATCC 50803
[10] = target: HLA-B*58:01; experiment: as above
[11] = target: HLA-B*27:05; experiment: as above
[12] = target: HLA-B*07:02; experiment: as above
[13] = target: HLA-B*15:01; experiment: as above
[14] = target: HLA-A*01:01; experiment: as above
[15] = target: HLA-A*02:01; experiment: as above
[16] = target: HLA-B*44:02; experiment: as above
[17] = target: HLA-B*40:01; experiment: as above
[18] = target: HLA-A*69:01; experiment: as above
[19] = target: HLA-B*08:01; experiment: as above
[20] = target: HLA-A*03:01; experiment: as above
[21] = target: HLA-A*26:01; experiment: as above
[22] = target: HLA-A*68:02; experiment: IEDB peptide-MHC binding, purified MHC/competitive/radioactivity; filed as Kd, often an IC50 or EC50 that approximates it; ≥ and ≤ were set here for values at or beyond the usual limits of such assays
[23] = target: HLA-A*02:06; experiment: as above; details: source organism: Lassa virus Josiah
[24] = target: HLA-A*02:02; experiment: as above; details: source organism: Lassa virus Josiah
[25] = target: HLA-A*02:03; experiment: as above; details: source organism: Lassa virus Josiah
[26] = target: HLA-A*11:01; experiment: IEDB peptide-MHC binding, purified MHC/direct/fluorescence; filed as Kd, often an IC50 or EC50 that approximates it; ≥ and ≤ were set here for values at or beyond the usual limits of such assays
[27] = target: HLA-A*31:01; experiment: as above; details: source organism: Escherichia coli O157:H7
[28] = source organism: Dengue virus 2 Jamaica/1409/1983
[29] = source organism: Zaire ebolavirus
[30] = source organism: Dengue virus 3 Martinique/1243/1999
[31] = source organism: Sudan ebolavirus
[32] = source organism: Giardia lamblia ATCC 50803
[33] = source organism: Dengue virus 1 Brazil/97-11/1997
[34] = source organism: Vaccinia virus Copenhagen
[35] = source organism: Dengue virus 4 Philippines/H241/1956
[36] = source organism: Escherichia coli
[37] = source organism: Escherichia coli O157:H7

Sequence: SPIVDRKGKV
Kd [1, 28]: 0.545 µM

Sequence: DTTIGEWAF
IC50 [2, 29]: 25.5 µM

Sequence: EPIEGKVVQY
Kd [3, 30]: 0.491 µM
Kd [4, 30]: 5.03 µM
Kd [5]: 2.73 µM

Sequence: VAFLRFLTI
Kd [6, 28]: 0.00189 µM
Kd [7]: 0.0104 µM

Sequence: QSPPIREAV
IC50 [8, 31]: 38.3 µM

Sequence: IIQAFEAGV
IC50 [8, 29]: 2.47 µM

Sequence: PTAPSDGGM
Kd [9]: ≥ 20 µM
Kd [10, 32]: 9 µM

Sequence: IPATLFVWY
Kd [3, 33]: 0.00339 µM
Kd [4, 33]: 0.01 µM

Sequence: YRSGTETKI
IC50 [2, 34]: ≥ 315 µM

Sequence: YQLLEAVYG
IC50 [8, 34]: 31.1 µM

Sequence: IYTEGLMHN
IC50 [2, 31]: 4.41 µM

Sequence: KPSGSASSM
Kd [1, 33]: 0.00488 µM

Sequence: NADIGEWAF
IC50 [2, 31]: 55.5 µM

Sequence: SPARLASAI
Kd [1, 35]: 0.00268 µM
Kd [6, 35]: 0.532 µM

Sequence: RLRMDKLQL
Kd [1, 28]: 0.149 µM
Kd [7]: 0.175 µM

Sequence: DYIYLPLLK
Kd [11, 32]: ≥ 20 µM
Kd [12, 32]: ≥ 20 µM
Kd [13, 32]: ≥ 20 µM
Kd [14, 32]: ≥ 20 µM
Kd [15, 32]: ≥ 20 µM
Kd [16, 32]: ≥ 20 µM
Kd [17, 32]: ≥ 20 µM
Kd [10, 32]: ≥ 20 µM
Kd [18, 32]: ≥ 20 µM
Kd [19, 32]: ≥ 20 µM
Kd [20, 32]: 2.22 µM
Kd [21, 32]: ≥ 20 µM

Sequence: LGLMALKLI
Kd [6, 30]: 8.37 µM

Sequence: TTHFQRALI
Kd [22, 28]: 0.0013 µM

Sequence: IPPTAGILA
Kd [6, 33]: 5.55 µM

Sequence: LITSTVTGI
IC50 [2, 31]: 17.9 µM
IC50 [8, 31]: 1.64 µM

Sequence: ANLEDLIEW
IC50 ([2]; source organism: Vaccinia virus): ≥ 235 µM

Sequence: ALMDCIMFDA
Kd [23]: 0.0336 µM
Kd [24]: 0.00525 µM
Kd ([22]; source organism: Lassa virus Josiah): ≥ 5 µM
Kd [25]: 0.00962 µM

Sequence: ELSFEALSL
IC50 [2, 31]: 39.5 µM
IC50 [8, 31]: 23.9 µM

Sequence: TPHSGEEHAV
Kd [1, 28]: 0.162 µM

Sequence: TPQDNQLIYV
Kd [1, 35]: 7.76 µM

Kd [11, 36]: ≥ 20 µM
Kd [26, 36]: 1.58 µM
Kd [12, 36]: ≥ 20 µM
Kd [13, 36]: ≥ 20 µM
Kd [14, 36]: ≥ 20 µM
Kd [15, 36]: ≥ 20 µM
Kd [17, 36]: ≥ 20 µM
Kd [10, 36]: ≥ 20 µM
Kd [18, 36]: ≥ 20 µM
Kd [19, 36]: ≥ 20 µM
Kd [20, 36]: ≥ 20 µM
Kd [21, 36]: ≥ 20 µM
Sequence: TVANNPDDK

Sequence: HALLATSIF
Kd [3, 33]: 0.0168 µM

Sequence: YSAPSESEGV
Kd ([22]; source organism: Dengue virus 4 Dominica/814669/1981): 0.0122 µM

Sequence: KPWDVVPMV
Kd [6, 28]: 1.44 µM

Sequence: WTMKILIGVI
Kd [22, 28]: 0.184 µM

Sequence: ELLPAVSSG
IC50 [8, 29]: ≥ 194 µM

Sequence: ETWMSSEGA
Kd [22, 28]: 0.00286 µM

Sequence: AAIGLAWIP
IC50 [2, 29]: ≥ 131 µM
IC50 [8, 29]: ≥ 280 µM

Sequence: EPWLSSKPEF
Kd [3, 35]: 1.38 µM
Kd [4, 35]: 0.684 µM

Kd [27]: ≥ 20 µM
Kd [11, 37]: ≥ 20 µM
Kd [26, 37]: ≥ 20 µM
Kd [12, 37]: ≥ 20 µM
Kd [13, 37]: ≥ 20 µM
Kd [14, 37]: ≥ 20 µM
Kd [15, 37]: ≥ 20 µM
Kd [16, 37]: ≥ 20 µM
Kd [17, 37]: ≥ 10 µM
Kd [10, 37]: ≥ 20 µM
Kd [18, 37]: ≥ 20 µM
Kd [19, 37]: ≥ 20 µM
Kd [20, 37]: ≥ 20 µM
Kd [21, 37]: ≥ 20 µM
Sequence: RFDEAIINY
